Measurements reported in patent publication US20240336672A1 (INSTITUT PASTEUR, published 2024).
Where “and” joins values, the source holds several entries; their conditions need not be identical. Identical values can stand only once.

Tests used:
[1] = target: SARS-CoV-2 spike, Omicron BA.1 variant, on virus (SARS-CoV-2); experiment: cell-based or functional assay
[2] = target: SARS-CoV-2 spike, Gamma variant (P.1), on virus or pseudotyped particles (SARS-CoV-2); experiment: cell-based or functional assay
[3] = target: T1, SARS-CoV-2 spike, Delta variant (B.1.617.2), on virus or pseudotyped particles (SARS-CoV-2); experiment: cell-based or functional assay
[4] = target: T2, CoV-NL63 Spike ectodomain (NL63-CoV, UniProt Q6Q1S2 19-1291); experiment: ELISA, coated spike ectodomain
T2 sequence: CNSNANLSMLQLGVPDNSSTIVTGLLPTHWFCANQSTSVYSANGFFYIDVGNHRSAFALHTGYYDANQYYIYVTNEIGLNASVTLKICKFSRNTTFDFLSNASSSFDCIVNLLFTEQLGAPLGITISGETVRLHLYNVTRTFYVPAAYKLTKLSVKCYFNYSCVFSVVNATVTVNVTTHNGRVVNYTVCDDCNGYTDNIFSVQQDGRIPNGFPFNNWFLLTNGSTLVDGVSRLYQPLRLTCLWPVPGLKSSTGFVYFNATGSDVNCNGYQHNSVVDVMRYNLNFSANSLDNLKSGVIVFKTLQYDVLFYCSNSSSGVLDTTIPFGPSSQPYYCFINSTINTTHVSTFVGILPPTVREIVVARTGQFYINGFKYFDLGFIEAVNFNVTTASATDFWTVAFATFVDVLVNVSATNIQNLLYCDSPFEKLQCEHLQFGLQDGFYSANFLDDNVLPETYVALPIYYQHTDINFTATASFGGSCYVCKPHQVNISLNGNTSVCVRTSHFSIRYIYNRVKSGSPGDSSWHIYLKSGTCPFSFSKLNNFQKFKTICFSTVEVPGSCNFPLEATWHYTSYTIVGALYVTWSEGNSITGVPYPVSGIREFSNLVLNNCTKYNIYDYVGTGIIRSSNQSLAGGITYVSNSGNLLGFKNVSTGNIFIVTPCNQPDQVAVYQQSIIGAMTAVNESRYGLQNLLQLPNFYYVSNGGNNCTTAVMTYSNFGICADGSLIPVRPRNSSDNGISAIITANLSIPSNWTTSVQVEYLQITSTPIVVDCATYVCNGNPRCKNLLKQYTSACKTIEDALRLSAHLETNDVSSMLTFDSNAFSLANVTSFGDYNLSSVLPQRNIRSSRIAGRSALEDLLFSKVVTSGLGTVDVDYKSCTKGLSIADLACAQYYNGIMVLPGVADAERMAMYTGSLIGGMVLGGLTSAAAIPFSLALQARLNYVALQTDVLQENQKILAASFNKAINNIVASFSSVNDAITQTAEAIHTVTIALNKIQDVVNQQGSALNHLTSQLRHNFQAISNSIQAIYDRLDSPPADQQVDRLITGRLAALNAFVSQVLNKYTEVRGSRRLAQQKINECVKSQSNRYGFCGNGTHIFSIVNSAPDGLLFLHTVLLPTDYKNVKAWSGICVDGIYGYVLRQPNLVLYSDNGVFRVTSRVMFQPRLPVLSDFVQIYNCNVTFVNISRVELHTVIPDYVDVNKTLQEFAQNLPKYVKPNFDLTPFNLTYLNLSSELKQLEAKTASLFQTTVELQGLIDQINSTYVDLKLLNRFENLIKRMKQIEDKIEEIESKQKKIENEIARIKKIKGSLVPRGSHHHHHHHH

[5] = target: T3, CoV-OC43 Spike ectodomain (OC43-CoV, UniProt P36334 14-1263); experiment: ELISA, coated spike ectodomain
T3 chain: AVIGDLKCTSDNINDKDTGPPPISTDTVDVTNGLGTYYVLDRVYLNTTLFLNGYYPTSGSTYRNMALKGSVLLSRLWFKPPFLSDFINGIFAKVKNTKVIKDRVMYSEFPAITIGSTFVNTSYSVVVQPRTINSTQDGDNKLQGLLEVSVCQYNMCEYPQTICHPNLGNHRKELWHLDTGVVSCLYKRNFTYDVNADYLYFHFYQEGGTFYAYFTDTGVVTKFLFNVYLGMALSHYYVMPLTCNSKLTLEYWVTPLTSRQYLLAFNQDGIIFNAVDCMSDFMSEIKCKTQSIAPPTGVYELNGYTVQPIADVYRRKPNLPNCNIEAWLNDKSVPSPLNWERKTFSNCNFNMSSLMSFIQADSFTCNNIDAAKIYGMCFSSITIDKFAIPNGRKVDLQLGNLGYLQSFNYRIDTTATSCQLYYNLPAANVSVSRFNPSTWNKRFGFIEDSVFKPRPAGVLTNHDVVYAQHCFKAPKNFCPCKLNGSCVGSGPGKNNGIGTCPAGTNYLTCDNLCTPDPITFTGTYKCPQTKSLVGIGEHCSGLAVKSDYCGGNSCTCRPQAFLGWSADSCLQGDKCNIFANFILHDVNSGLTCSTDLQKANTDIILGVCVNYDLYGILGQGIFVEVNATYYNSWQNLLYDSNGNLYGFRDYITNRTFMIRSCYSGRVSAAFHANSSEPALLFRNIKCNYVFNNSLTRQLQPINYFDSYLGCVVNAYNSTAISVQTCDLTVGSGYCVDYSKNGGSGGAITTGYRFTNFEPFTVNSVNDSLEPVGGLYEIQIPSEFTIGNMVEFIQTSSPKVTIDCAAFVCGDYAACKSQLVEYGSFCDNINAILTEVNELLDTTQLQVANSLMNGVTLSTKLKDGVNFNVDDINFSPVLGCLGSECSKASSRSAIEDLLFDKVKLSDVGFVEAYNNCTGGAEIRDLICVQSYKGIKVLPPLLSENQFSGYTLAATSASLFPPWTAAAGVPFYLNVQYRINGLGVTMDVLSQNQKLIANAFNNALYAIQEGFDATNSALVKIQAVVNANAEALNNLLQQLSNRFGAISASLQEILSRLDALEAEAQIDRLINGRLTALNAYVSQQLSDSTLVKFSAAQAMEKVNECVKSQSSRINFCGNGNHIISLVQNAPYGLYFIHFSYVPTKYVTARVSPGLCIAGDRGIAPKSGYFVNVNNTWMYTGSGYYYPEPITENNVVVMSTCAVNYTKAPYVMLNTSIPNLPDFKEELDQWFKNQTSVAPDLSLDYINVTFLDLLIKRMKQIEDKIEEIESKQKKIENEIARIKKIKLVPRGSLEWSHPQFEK

[6] = target: T1, SARS-CoV-2 spike, Delta variant …; experiment: cell-based or functional assay; remark: listed apart in the source

| Binder | S-Fuse IC50 [1] | neutralization IC50 [1] [ng/mL] | Pseudoneutralization IC50 [2] [ng/mL] | Pseudoneutralization IC90 [2] [ng/mL] | S-Fuse neutralization IC50 [2] [ng/mL] | S-Fuse neutralization IC90 [2] [ng/mL] | Pseudoneutralization IC50 [3] [ng/mL] | Pseudoneutralization IC90 [3] [ng/mL] | S-Fuse neutralization IC50 [3] [ng/mL] | S-Fuse neutralization IC90 [3] [ng/mL] | binding result [4] | binding result [5] | IC50, S-Fuse neutralisation [6] [ng/mL] |
| --- | --- | --- | --- | --- | --- | --- | --- | --- | --- | --- | --- | --- | --- |
| Cv2.1169 (recombinant human IgG1) (antibody, also called Cv2.1169 IgG) heavy: QVQLVQSGPEVKKPGTSVKVSCKASGFTFTTSAVQWVRQARGQRLEWIGWIVVGSGNTNYAQKFQERVTITRDMSTTTAYMELSSLRSEDTAVYYCAAPYCSGGTCLDGFDIWGQGTMVTVSSASTKGPSVFPLAPSSKSTSGGTAALGCLVKDYFPEPVTVSWNSGALTSGVHTFPAVLQSSGLYSLSSVVTVPSSSLGTQTYICNVNHKPSNTKVDKKVEPKSCDKTHTCPPCPAPELLGGPSVFLFPPKPKDTLMISRTPEVTCVVVDVSHEDPEVKFNWYVDGVEVHNAKTKPREEQYNSTYRVVSVLTVLHQDWLNGKEYKCKVSNKALPAPIEKTISKAKQPREPQVYTLPPSRDELTKNQVSLTCLVKGFYPSDIAVEWESNGQPENNYKTTPPVLDSDGSFFLYSKLTVDKSRWQQGNVFSCSVMHEALHNHYTQKSLSLSPGK light: not shown | 253 ng/mL and 212 ng/mL | ~250 | 9.6 | 29.2 | 1.6 | 8.6 | 8 | 34.1 | 2.1 | 6.4 | no binding | no binding | 2.5 |
| Cv2.3194 (recombinant human IgG1) (antibody, V domains shown) VH: EVQLVESGGGLIQPGGSLRLSCAASGITVTSNYMSWVRQAPGKGLEWVSVIYPGGSTFYADSVKGRFTISRDNSKNTLYLQMNSLRAEDTAVYYCARDLVVYGMDVWGQGTTVTVSS VL: EIVLTQSPGTLSLSPGERATLSCRASQSVSSSYLAWYQQKPGQAPRLLIYGASSRATGIPGRFSGSGSGTDFTLTISRLEPEDFAIYYCQQGVTFGGGTKVEIKR | 24.2 ng/mL |  | 9.9 | 56.1 |  | 5.6 | 54.4 | 114 | 6.6 | 54.7 | no binding |  | 7.4 |
| Cv2.3235 (recombinant human IgG1) (antibody, V domains shown) VH: EVQLVESGGGLIQPGGSLRLSCAASGFTVSRNYMSWVRQAPGKGLEWVSVIYSGGSTFYADSVKGRFTISRDNSKNTLYLQMNSLRAEDTAVYYCARDGDYYGMDVWGQGTTVTVSS VL: DIQMTQSPSFLSASVGDRVTITCRASQGISSFLAWYQQKPGKAPKLLIYGASTLQSGVTSRFSGSGSGTEFTLTISSLQPEDFATYYCQRLDSYPPITFGQGTRLEIKR |  |  |  |  |  |  |  |  |  |  | no binding | no binding |  |
| Cv2.5213 (recombinant human IgG1) (antibody, V domains shown) VH: EVQLVESGGGLIQPGGSLRLSCAASGFTVSSNYMSWVRQAPGKGLEWVSLIYSGGSTYYADSVKGRFTISRDNSKNTLYLQMNSLRAEDTAVYYCARDLNYYGMDVWGQGATVTVSS VL: DIQMTQSPSSLSASVGDRVTITCRASQGISSYLAWYQQKPGKAPKLLIYAASTLQSGVPSRFSGSGSGTDFTLTISSLQPEDFATYYCQQLDSYSPFTFGPGTKVDIKR |  |  |  |  |  |  |  |  |  |  | no binding |  |  |
| Cv2.1353 (recombinant human IgG1) (antibody, V domains shown) VH: EVQLVESGGGLVQPGGSLRLSCAASGVTVSSNYMNWVRQAPGKGLEWVSVIYSGGSTFYADSVKGRFIISRDNSKNTLYLQMNSLKTEDTAVYYCARDLGPMGFDIWGQGTMVTVSS VL: DIQMTQSPSFLSASVGDRVTITCRASQGISSYLAWYQQKPGKAPKLLIYAASTLQSGVPSRFSGSGSGTEFTLTISSLQPEDFATYYCQQLNSDPPVTFGPGTKVDIKR |  |  |  |  |  |  |  |  |  |  | no binding |  |  |
